This assay concerns the target NaV1.5 voltage-gated sodium channel α subunit (human SCN5A) (human) (UniProt Q14524).

As for “Sodium channel β1 subunit carrying p.D103V (β1^D103V) (from UniProt Q07699-1 19-218) (natural protein)”, the positive shift of the voltage dependence of activation (V1/2) of the NaV1.5 sodium current with β1^D103V compared to β1^WT, whole cell patch clamp in transfected HEK-293 tsA201 cells came out at 3.37 mV.

The values above are taken from PMC7550680.
